± gives the standard deviation of the averaged measurements.
What follows are sequences tested on Saccharomyces cerevisiae (assay: protein stability index of tFT-peptide fusion (C-terminal peptide) (PSI (0-1 scale)); higher = more stable (slower turnover)). Settings: genetic background: das1 deletion; temperature: 30 C.
Description: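 MPS profiling in S. cerevisiae of the yeast C-terminome library: the last 12 aa of each annotated ORF are fused to the C-terminus of a sfGFP-mCherry timer, after a GGGS linker. Cells are FACS-sorted into 8 mCherry/sfGFP bins and deep-sequenced. PSI runs from 0 (unstable) to 1 (stable); wild type and das1Δ backgrounds, two technical replicates each.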
With VHTELLIYCHDE [ASR1 C-terminal 12 aa] the protein stability index was 0.7068 ± 0.006.
Work on VIKQQNHQTTKI [HKR1 C-terminal 12 aa] yielded a protein stability index of 0.68 ± 0.037.
With VISLAAQSKYVQ [MCO6 C-terminal 12 aa] the protein stability index was 0.693 ± 0.019.
In the case of VKDKVDAVYSSS [FAA1 C-terminal 12 aa], the protein stability index is reported as 0.6925 ± 0.0045.
For VKKNKPSIESKC [GSH1 C-terminal 12 aa], the protein stability index was 0.688 ± 0.0086.
VLESFLAPMVNQ [BET5 C-terminal 12 aa] was tested, and the protein stability index was 0.688 ± 0.0073.
Work on VLIVLLVLAFIA [TLG1 C-terminal 12 aa] yielded a protein stability index of 0.284 ± 0.013.
In the case of VMLLFIFLIMKL [PEP12 C-terminal 12 aa], the protein stability index is reported as 0.186 ± 0.023.
Work on VMLNSVSISLNK [COG5 C-terminal 12 aa] yielded a protein stability index of 0.711 ± 0.014.
VNHNWYSIYEST [TFC3 C-terminal 12 aa] gave a protein stability index of 0.729 ± 0.013.
VPLIIDSSGSAN [FTH1 C-terminal 12 aa] gave a protein stability index of 0.718 ± 0.011.
In the case of VRLRGRKRSMLG [BUD32 C-terminal 12 aa], the protein stability index is reported as 0.701 ± 0.02.
Work on VSGFKDEVLETV [RPS1B C-terminal 12 aa] yielded a protein stability index of 0.679 ± 0.037.
With VTTTFDKVHQDW [LEU1 C-terminal 12 aa] the protein stability index was 0.715 ± 0.017.
Sequence VTVSNVWFNQLQ [YPL197C C-terminal 12 aa] has a protein stability index of 0.70615 ± 0.00045.
For VVCMVVLLAVLS [VAM3 C-terminal 12 aa], the protein stability index was 0.148 ± 0.018.
For VVGEDEKDDFFE [EFG1 C-terminal 12 aa], the protein stability index was 0.721 ± 0.024.
In the case of VVGRYMRSGLKK [NOP1 C-terminal 12 aa], the protein stability index is reported as 0.6704 ± 0.005.
VVNNRRQSRTPK [BLI1 C-terminal 12 aa] was tested, and the protein stability index was 0.707 ± 0.044.
VVYRHLHTKVSK [HAL5 C-terminal 12 aa] gave a protein stability index of 0.682 ± 0.0075.
VYGRNGNESHST [YGR050C C-terminal 12 aa] showed a protein stability index of 0.701 ± 0.019.
Sequence VYTSKTQYKFDI [YNR071C C-terminal 12 aa] has a protein stability index of 0.6849 ± 0.0021.
With “WFICRMLSKVTL [YNR003W-A C-terminal 12 aa]” the protein stability index was 0.609 ± 0.012.
For WHKSQLEDMNGY [YHL012W C-terminal 12 aa], the protein stability index was 0.683 ± 0.005.
WLPELALLCALD [LAS21 C-terminal 12 aa] was tested, and the protein stability index was 0.614 ± 0.0098.
With WRKFGINSYSYS [DIA2 C-terminal 12 aa] the protein stability index was 0.734 ± 0.016.
For WRSIGSGPIMEF [BUG1 C-terminal 12 aa], the protein stability index was 0.706 ± 0.024.
WSDKLLQIYARC [SAE2 C-terminal 12 aa] showed a protein stability index of 0.5447 ± 0.0049.
Sequence WVAHSKTKLATK [CAB2 C-terminal 12 aa] has a protein stability index of 0.677 ± 0.014.
YANLLYKFWNDQ [PCL7 C-terminal 12 aa] gave a protein stability index of 0.735 ± 0.011.
In the case of YASRGTGELWSP [NMD4 C-terminal 12 aa], the protein stability index is reported as 0.7031 ± 0.004.
For YAVFTVLFSIIF [SPS2 C-terminal 12 aa], the protein stability index was 0.297 ± 0.013.
YCFYINCIMNRR [RRT15 C-terminal 12 aa] gave a protein stability index of 0.658 ± 0.031.
YEIEPDFDRLAV [SVP26 C-terminal 12 aa] gave a protein stability index of 0.691 ± 0.022.
YERERKLRGGKK [NOP14 C-terminal 12 aa] showed a protein stability index of 0.702 ± 0.027.
Sequence YEYHTEEDVMYA [YGR130C C-terminal 12 aa] has a protein stability index of 0.703 ± 0.013.
YFNLFTDLSGSK [NEL1 C-terminal 12 aa] showed a protein stability index of 0.73 ± 0.012.
YGLLKFHSVFES [YMR209C C-terminal 12 aa] gave a protein stability index of 0.707 ± 0.0069.
YGNWSKTVADLN [BAT1 C-terminal 12 aa] gave a protein stability index of 0.692 ± 0.022.
YGRGETPKHAIE [DPH1 C-terminal 12 aa] gave a protein stability index of 0.692 ± 0.0084.
YKTEYPEWALRR [PUS9 C-terminal 12 aa] gave a protein stability index of 0.723 ± 0.01.
YLIKNPGYPIVF [OST6 C-terminal 12 aa] gave a protein stability index of 0.621 ± 0.0095.
Work on YLISEKIIRKHL [MET14 C-terminal 12 aa] yielded a protein stability index of 0.685 ± 0.017.
YLPRSKWFGILV [ALG14 C-terminal 12 aa] showed a protein stability index of 0.359 ± 0.02.
YNPPDYEPEAKK [PHM7 C-terminal 12 aa] gave a protein stability index of 0.6998 ± 0.0052.
With YPKFIKGHEEYF [BSC6 C-terminal 12 aa] the protein stability index was 0.702 ± 0.035.
Work on YRDDPNQKNYKD [MSS4 C-terminal 12 aa] yielded a protein stability index of 0.6905 ± 0.0037.
YSINPDEIELDI [SYF1 C-terminal 12 aa] showed a protein stability index of 0.707 ± 0.025.
YSLLIHLSKKKS [YNR005C C-terminal 12 aa] was tested, and the protein stability index was 0.668 ± 0.025.
With YSSDSSTLHSKV [FIG1 C-terminal 12 aa] the protein stability index was 0.7 ± 0.021.
YSSRRWRLDTHD [RTC4 C-terminal 12 aa] gave a protein stability index of 0.763 ± 0.034.
Work on YSWMQPESGWNP [YER188W C-terminal 12 aa] yielded a protein stability index of 0.738 ± 0.011.
YSYSSPKYTFPC [YKL147C C-terminal 12 aa] gave a protein stability index of 0.6967 ± 0.0022.
YTTVLSSQSSKL [PEX8 C-terminal 12 aa] was tested, and the protein stability index was 0.783 ± 0.013.
With YVIHLDQIDRDL [YLR269C C-terminal 12 aa] the protein stability index was 0.714 ± 0.0093.
YVTYSGENTFGR [ATG8 C-terminal 12 aa] gave a protein stability index of 0.703 ± 0.025.
YVVKGWCDSRFL [GIS3 C-terminal 12 aa] was tested, and the protein stability index was 0.72 ± 0.01.
YYYKNSYWPSHI [VPS36 C-terminal 12 aa] was tested, and the protein stability index was 0.6935 ± 0.0058.

Same assay, conditions: genetic background: wild type; temperature: 30 C
Work on VHTELLIYCHDE [ASR1 C-terminal 12 aa] yielded a protein stability index of 0.6802 ± 0.0017.
Work on VIKQQNHQTTKI [HKR1 C-terminal 12 aa] yielded a protein stability index of 0.705 ± 0.055.
With VISLAAQSKYVQ [MCO6 C-terminal 12 aa] the protein stability index was 0.697 ± 0.034.
Sequence VKDKVDAVYSSS [FAA1 C-terminal 12 aa] has a protein stability index of 0.678 ± 0.011.
VKKNKPSIESKC [GSH1 C-terminal 12 aa] was tested, and the protein stability index was 0.762 ± 0.03.
VLESFLAPMVNQ [BET5 C-terminal 12 aa] showed a protein stability index of 0.71 ± 0.061.
Work on VLIVLLVLAFIA [TLG1 C-terminal 12 aa] yielded a protein stability index of 0.286 ± 0.0034.
For VMLLFIFLIMKL [PEP12 C-terminal 12 aa], the protein stability index was 0.198 ± 0.01.
For VMLNSVSISLNK [COG5 C-terminal 12 aa], the protein stability index was 0.6577 ± 0.00017.
VNHNWYSIYEST [TFC3 C-terminal 12 aa] showed a protein stability index of 0.681 ± 0.0081.
For VPLIIDSSGSAN [FTH1 C-terminal 12 aa], the protein stability index was 0.68 ± 0.0077.
Work on VRLRGRKRSMLG [BUD32 C-terminal 12 aa] yielded a protein stability index of 0.665 ± 0.023.
For VSGFKDEVLETV [RPS1B C-terminal 12 aa], the protein stability index was 0.708 ± 0.029.
VTTTFDKVHQDW [LEU1 C-terminal 12 aa] gave a protein stability index of 0.714 ± 0.058.
VTVSNVWFNQLQ [YPL197C C-terminal 12 aa] was tested, and the protein stability index was 0.526 ± 0.014.
Work on VVCMVVLLAVLS [VAM3 C-terminal 12 aa] yielded a protein stability index of 0.171 ± 0.012.
VVGEDEKDDFFE [EFG1 C-terminal 12 aa] gave a protein stability index of 0.691 ± 0.026.
VVGRYMRSGLKK [NOP1 C-terminal 12 aa] showed a protein stability index of 0.682 ± 0.028.
In the case of VVNNRRQSRTPK [BLI1 C-terminal 12 aa], the protein stability index is reported as 0.661 ± 0.0082.
Sequence VVYRHLHTKVSK [HAL5 C-terminal 12 aa] has a protein stability index of 0.658 ± 0.0043.
In the case of VYGRNGNESHST [YGR050C C-terminal 12 aa], the protein stability index is reported as 0.689 ± 0.017.
For VYTSKTQYKFDI [YNR071C C-terminal 12 aa], the protein stability index was 0.694 ± 0.062.
In the case of “WFICRMLSKVTL [YNR003W-A C-terminal 12 aa]”, the protein stability index is reported as 0.595 ± 0.012.
WHKSQLEDMNGY [YHL012W C-terminal 12 aa] was tested, and the protein stability index was 0.6568 ± 0.0052.
WLPELALLCALD [LAS21 C-terminal 12 aa] gave a protein stability index of 0.633 ± 0.017.
In the case of WRKFGINSYSYS [DIA2 C-terminal 12 aa], the protein stability index is reported as 0.759 ± 0.075.
In the case of WRSIGSGPIMEF [BUG1 C-terminal 12 aa], the protein stability index is reported as 0.719 ± 0.031.
In the case of WSDKLLQIYARC [SAE2 C-terminal 12 aa], the protein stability index is reported as 0.516 ± 0.045.
WVAHSKTKLATK [CAB2 C-terminal 12 aa] gave a protein stability index of 0.70267 ± 0.00017.
Sequence YANLLYKFWNDQ [PCL7 C-terminal 12 aa] has a protein stability index of 0.672 ± 0.021.
YASRGTGELWSP [NMD4 C-terminal 12 aa] gave a protein stability index of 0.714 ± 0.0047.
Sequence YAVFTVLFSIIF [SPS2 C-terminal 12 aa] has a protein stability index of 0.295 ± 0.0078.
In the case of YCFYINCIMNRR [RRT15 C-terminal 12 aa], the protein stability index is reported as 0.551 ± 0.00072.
YEIEPDFDRLAV [SVP26 C-terminal 12 aa] showed a protein stability index of 0.681 ± 0.021.
In the case of YERERKLRGGKK [NOP14 C-terminal 12 aa], the protein stability index is reported as 0.692 ± 0.072.
YEYHTEEDVMYA [YGR130C C-terminal 12 aa] was tested, and the protein stability index was 0.684 ± 0.044.
YFNLFTDLSGSK [NEL1 C-terminal 12 aa] gave a protein stability index of 0.72 ± 0.043.
YGLLKFHSVFES [YMR209C C-terminal 12 aa] showed a protein stability index of 0.668 ± 0.054.
In the case of YGNWSKTVADLN [BAT1 C-terminal 12 aa], the protein stability index is reported as 0.687 ± 0.022.
With YGRGETPKHAIE [DPH1 C-terminal 12 aa] the protein stability index was 0.713 ± 0.062.
Sequence YKTEYPEWALRR [PUS9 C-terminal 12 aa] has a protein stability index of 0.717 ± 0.053.
With YLIKNPGYPIVF [OST6 C-terminal 12 aa] the protein stability index was 0.6361 ± 0.0047.
For YLISEKIIRKHL [MET14 C-terminal 12 aa], the protein stability index was 0.602 ± 0.026.
YLPRSKWFGILV [ALG14 C-terminal 12 aa] showed a protein stability index of 0.165 ± 0.0058.
YNPPDYEPEAKK [PHM7 C-terminal 12 aa] showed a protein stability index of 0.639 ± 0.008.
For YPKFIKGHEEYF [BSC6 C-terminal 12 aa], the protein stability index was 0.715 ± 0.0089.
For YRDDPNQKNYKD [MSS4 C-terminal 12 aa], the protein stability index was 0.749 ± 0.081.
In the case of YSINPDEIELDI [SYF1 C-terminal 12 aa], the protein stability index is reported as 0.698 ± 0.029.
In the case of YSLLIHLSKKKS [YNR005C C-terminal 12 aa], the protein stability index is reported as 0.6119 ± 0.0036.
With YSSDSSTLHSKV [FIG1 C-terminal 12 aa] the protein stability index was 0.6859 ± 0.0017.
YSSRRWRLDTHD [RTC4 C-terminal 12 aa] was tested, and the protein stability index was 0.752 ± 0.058.
With YSWMQPESGWNP [YER188W C-terminal 12 aa] the protein stability index was 0.722 ± 0.032.
Sequence YSYSSPKYTFPC [YKL147C C-terminal 12 aa] has a protein stability index of 0.669 ± 0.063.
YTTVLSSQSSKL [PEX8 C-terminal 12 aa] showed a protein stability index of 0.855 ± 0.091.
For YVIHLDQIDRDL [YLR269C C-terminal 12 aa], the protein stability index was 0.699 ± 0.028.
Sequence YVTYSGENTFGR [ATG8 C-terminal 12 aa] has a protein stability index of 0.691 ± 0.021.
YVVKGWCDSRFL [GIS3 C-terminal 12 aa] was tested, and the protein stability index was 0.701 ± 0.016.
YYYKNSYWPSHI [VPS36 C-terminal 12 aa] gave a protein stability index of 0.701 ± 0.027.
